From publication PMC5389554 (Nucleic Acids Research, 2017)

Assays:
[1] = biological target: the molecule itself; test: non-reducing SDS-PAGE
[2] = biological target: the molecule itself; test: cross-linking
[3] = biological target: the molecule itself; test: non-reducing SDS-PAGE with immunoblot

B1: GST-CNBP (recombinant cellular nucleic acid-binding protein with GST tag) (natural protein, mouse, UniProt P53996 1-178, looked up)
chain: MSSNECFKCGRSGHWARECPTGGGRGRGMRSRGRGGFTSDRGFQFVSSSLPDICYRCGESGHLAKDCDLQEDEACYNCGRGGHIAKDCKEPKREREQCCYNCGKPGHLARDCDHADEQKCYSCGEFGHIQKDCTKVKCYRCGETGHVAINCSKTSEVNCYRCGESGHLARECTIEATA
- stoichiometry N [1]: 2

B2: endogenous CNBP (cellular nucleic acid-binding protein) (natural protein, mouse (endogenous in RAW 264.7), UniProt P53996 1-178, looked up)
chain: B1 chain
- stoichiometry N [2]: 2

B3: CNBP-HA (wild type) (natural protein, mouse, UniProt P53996 1-178, looked up)
chain: B1 chain
- stoichiometry N [3]: 2
